Key:
[1] = target: T1, His6-GIGYF2 GYF domain (residues 529-597) (human, UniProt Q6Y7W6 529-597); experiment: pull-down
T1 sequence (looked up): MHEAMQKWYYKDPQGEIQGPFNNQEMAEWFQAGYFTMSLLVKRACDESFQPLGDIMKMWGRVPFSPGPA

[2] = target: T2, His6-GIGYF1 GYF domain (residues 470-538) (human, UniProt O75420 470-538); experiment: pull-down
T2 sequence (looked up): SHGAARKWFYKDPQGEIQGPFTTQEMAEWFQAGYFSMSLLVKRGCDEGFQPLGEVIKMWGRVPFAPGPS

B1: GST-tagged fragment of the first tetra-proline region of TTP (residues 68-78) (peptide, UniProt P26651 68-78, looked up)
chain: GWVPPPPGFAP
Question: Does B1 bind [1]?
Answer: binds

Question: Does B1 bind [2]?
Answer: binds
